Experimental data from patent US10260060B2, “Genetically modified phenylpyruvate decarboxylase, processes to prepare, and uses thereof” (Dow Global Technologies LLC, priority 2014, dated 2019).

Key:
[1] = tested on: Azospirillum brasilense phenylpyruvate decarboxylase (AbPPDC); conditions: Spaepen et al., J. Bacteriol., 2007; cited from earlier work
[2] = substrate: CCCCCCCC(=O)C(=O)O; experiment: HTP AbPPDC coupled enzyme assay (ADH6/NADPH), 2-ketoacid decarboxylation kinetics, Q536I; assay type: biochemical, Azospirillum brasilense; conditions: other: pH 6.8, 30° C, 2-ketoacid 0 to 4 mM, Michaelis-Menten equation, mean ± standard error
Procedure: (§1) The evaluation of the AbPPDC variants is performed in two steps using the high-throughput enzyme assay described hereinbelow. Initially, all the variants are tested for activity against a single high concentration (2 mM) of 2-KH and 2-KN (as shown in Table 1). Following the initial evaluation, detailed kinetic analysis is performed on a select number of variants to determine the maximal rate (kcat), substrate concentration yielding half maximal rate (K0.5, equivalent of KM for enzymes following Michaelis-Menten kinetics), and the catalytic efficiency of the enzyme (kcat/K0.5) against 2-KO and 2-KN (as shown in Table 2). AbPPDC variants, having higher specificity (higher kcat/K0.5) for 2-KN, will be efficient in producing octanal and chemicals derived from it inside the cells.
(§2) To evaluate the substrate specificity of the wild type AbPPDC and its variants listed in Table 1, genes of all the proteins are expressed in E. coli cells separately and the protein products are isolated from the cells. The gene sequence of the Azospirillum brasilense phenylpyruvate decarboxylase (GenBank: Accession no. L26240) is downloaded from the NCBI database. Codons of 13 additional amino acids that include six (6) histidines (his) are added upstream of the Met-1 codon of the AbPPDC gene sequence. Such a modification allows expression of a Histidine-tagged AbPPDC having 13 additional amino acids on the N-terminus. The additional amino acids are attached as an aid for purifying the protein in a single step using Ni-NTA chromatography. The entire AbPPDC sequence with 13 additional amino acids (SEQ ID 2) is chemically synthesized and then cloned into the pRSFDuet-1 vector (EMD Biosciences) downstream of the T7 polymerase promoter by Synthetic Genomics, Inc. (San Diego, Calif.). The final vector is sequenced by Synthetic Genomics, Inc. before shipping.
(§3) Genes of the AbPPDC variants listed in Table 1 are either chemically synthesized or generated using New England Biolab's Q5 Site-directed Mutagenesis Kit (cat. no. E0554S) and cloned into the pRSFDuet-1 vector. The pRSFDuet-1 vector containing AbPPDC or the AbPPDC variant gene is transformed into E. coli, AbPPDC or its variant, then expressed and eventually purified, as described below.
(§4) A high-throughput AbPPDC coupled enzyme assay is developed for evaluating the substrate specificity of AbPPDC variants. The assay involves reducing the aldehyde produced from AbPPDC mediated 2-ketoacid decarboxylation, using an alcohol dehydrogenase (ADH6, GenBank: Accession No. NP 014051.3). The initial velocities of the AbPPDC catalyzed reactions are determined from the rates of oxidation of reduced nicotinamide adenine dinucleotide phosphate (NADPH) occurring during the ADH6 catalyzed reduction of aldehyde.
(§5) The HTP screening assay involves incubating 2 mM 2-KH or 2 mM 2-KN with 0.5 mM thiamine diphosphate, 0.35 mM NADPH, 4.7 micrograms (μg) of yeast ADH6 (GenBank: Accession No. NP 014051.3) and 0.3 milligrams per milliliter (mg/mL) bovine serum albumin (BSA) in AbPPDC assay buffer (50 mM 3-(N-morpholino)propanesulfonic acid, pH 6.8, containing 2.5 mM magnesium chloride (MgCl2)) at 30° C. The reaction is started by addition at 30° C. of working enzyme stock containing from 0.5 μg to 3.5 μg of AbPPDC variant diluted in AbPPDC assay buffer containing 1 mg/mL BSA. The plate containing the 200 μL of reaction mixture is centrifuged at 2500×g for 15 sec and the absorbance change of the reaction mixture followed spectrophotometrically at 340 nm on a BioTek™ plate reader, pre-equilibrated at 30° C. Initial velocity of the enzyme reaction is calculated using the rate of NADPH consumption at 340 nm and the extinction coefficient of NADPH (6.22 mM^−1 cm^−1). The activity of all the variants is normalized with the amount of enzyme present in the reaction mixture and expressed as nanomoles per minute per milligram (nmol·min^−1·mg^−1). […]

[3] = substrate: CCCCCCC(=O)C(=O)O; experiment: as above; assay type: biochemical, Azospirillum brasilense; conditions: other: pH 6.8, 30° C, 2-ketoacid 0 to 4 mM, Michaelis-Menten equation, mean ± standard error
Procedure: as §1, §2, §3, §4, §5

[4] = substrate: CCCCCCCC(=O)C(=O)O; experiment: HTP AbPPDC coupled enzyme assay (ADH6/NADPH), 2-ketoacid decarboxylation kinetics, F385L; assay type: biochemical, Azospirillum brasilense; conditions: other: pH 6.8, 30° C, 2-ketoacid 0 to 4 mM, Hill equation, mean ± standard error
Procedure: as §1, §2, §3, §4, §5

[5] = substrate: CCCCCCC(=O)C(=O)O; experiment: as above; assay type: biochemical, Azospirillum brasilense; conditions: other: pH 6.8, 30° C, 2-ketoacid 0 to 4 mM, Hill equation, mean ± standard error
Procedure: as §1, §2, §3, §4, §5

[6] = substrate: CCCCCCCC(=O)C(=O)O; experiment: HTP AbPPDC coupled enzyme assay (ADH6/NADPH), 2-ketoacid decarboxylation kinetics, M461L; assay type: biochemical, Azospirillum brasilense; conditions: other: pH 6.8, 30° C, 2-ketoacid 0 to 4 mM, Hill equation, mean ± standard error
Procedure: as §1, §2, §3, §4, §5

[7] = substrate: CCCCCCC(=O)C(=O)O; experiment: as above; assay type: biochemical, Azospirillum brasilense; conditions: other: pH 6.8, 30° C, 2-ketoacid 0 to 4 mM, Hill equation, mean ± standard error
Procedure: as §1, §2, §3, §4, §5

[8] = substrate: CCCCCCCC(=O)C(=O)O; experiment: HTP AbPPDC coupled enzyme assay (ADH6/NADPH), 2-ketoacid decarboxylation kinetics, wild type; assay type: biochemical, Azospirillum brasilense; conditions: other: pH 6.8, 30° C, 2-ketoacid 0 to 4 mM, Hill equation, mean ± standard error
Procedure: as §1, §2, §4
(§6) The HTP screening assay involves incubating 2 mM 2-KH or 2 mM 2-KN with 0.5 mM thiamine diphosphate, 0.35 mM NADPH, 4.7 micrograms (μg) of yeast ADH6 (GenBank: Accession No. NP 014051.3) and 0.3 milligrams per milliliter (mg/mL) bovine serum albumin (BSA) in AbPPDC assay buffer (50 mM 3-(N-morpholino)propanesulfonic acid, pH 6.8, containing 2.5 mM magnesium chloride (MgCl2)) at 30° C. The reaction is started by addition at 30° C. of working enzyme stock containing from 0.5 μg to 3.5 μg of AbPPDC variant diluted in AbPPDC assay buffer containing 1 mg/mL BSA. The plate containing the 200 μL of reaction mixture is centrifuged at 2500×g for 15 sec and the absorbance change of the reaction mixture followed spectrophotometrically at 340 nm on a BioTek™ plate reader, pre-equilibrated at 30° C. Initial velocity of the enzyme reaction is calculated using the rate of NADPH consumption at 340 nm and the extinction coefficient of NADPH (6.22 mM^−1 cm^−1). The activity of all the variants is normalized with the amount of enzyme present in the reaction mixture and expressed as nanomoles per minute per milligram (nmol·min^−1·mg^−1). Protein concentrations for normalizing the activities are determined using the 660 nm total protein assay kit from Pierce Biotechnology Inc., available from Thermo Fisher Scientific, Inc., using BSA as the standard.
(§7) The kinetic parameters of the decarboxylation of 2-ketooctanoate (2-KO) and 2-ketononanoate (2-KN) by AbPPDC and its variants are also determined using the same HTP AbPPDC coupled enzyme assay, except that the concentrations of 2-KO or 2-KN are varied from 0 to 4 mM. […]

[9] = substrate: CCCCCCC(=O)C(=O)O; experiment: as above; assay type: biochemical, Azospirillum brasilense; conditions: other: pH 6.8, 30° C, 2-ketoacid 0 to 4 mM, Hill equation, mean ± standard error
Procedure: as §1, §2, §4, §6, §7

For `O=C(O)C(=O)Cc1ccccc1` [phenylpyruvic acid], the catalytic efficiency [1] is given as “high catalytic efficiencies”.

B1: Azospirillum brasilense phenylpyruvate decarboxylase (AbPPDC) variant Q536I, SEQ ID 38 (Azospirillum brasilense; Q536I) (protein)
chain: MKLAEALLRALKDRGAQAMFGIPGDFALPFFKVAEETQILPLHTLSHEPAVGFAADAAARYSSTLGVAAVTYGAGAFNMVNAVAGAYAEKSPVVVISGAPGTTEGNAGLLLHHQGRTLDTQFQVFKEITVAQARLDDPAKAPAEIARVLGAARALSRPVYLEIPRNMVNAEVEPVGDDPAWPVDRDALAACADEVLAAMRSATSPVLMVCVEVRRYGLEAKVAELAQRLGVPVVTTFMGRGLLADAPTPPLGTYIGVAGDAEITRLVEESDGLFLLGAILSDTNFAVSQRKIDLRKTIHAFDRAVTLGYHTYADIPLAGLVDALLEGLPPSDRTTRGKEPHAYPTGLQADGEPIAPMDIARAVNDRVRAGQEPLLIAADMGDCLFTAMDMIDAGLMAPGYYAGMGFGVPAGIGAQCVSGGKRILTVVGDGAFQMTGWELGNCRRLGIDPIVILFNNASWEMLRTFQPESAFNDLDDWRFADMAAGMGGDGVRVRTRAELKAALDKAFATRGRFQLIEAMIPRGVLSDTLARFVQGIKRLHAAPRE
notes: made in house; host or cells: E. coli BL21(DE3)
B1 showed a K0.5 [2] of 0.69 ± 0.09 mM, a kcat [2] of 1.05 ± 0.05 s⁻¹ and a kcat/Km [2] of 1530 ± 217 M⁻¹ s⁻¹. It also gave a K0.5 [3] of 0.71 ± 0.07 mM, a kcat [3] of 0.533 ± 0.0183 s⁻¹ and a kcat/Km [3] of 750 ± 83 M⁻¹ s⁻¹.

B2: Azospirillum brasilense phenylpyruvate decarboxylase (AbPPDC) variant F385L, SEQ ID 8 (Azospirillum brasilense; F385L) (protein)
chain: MKLAEALLRALKDRGAQAMFGIPGDFALPFFKVAEETQILPLHTLSHEPAVGFAADAAARYSSTLGVAAVTYGAGAFNMVNAVAGAYAEKSPVVVISGAPGTTEGNAGLLLHHQGRTLDTQFQVFKEITVAQARLDDPAKAPAEIARVLGAARALSRPVYLEIPRNMVNAEVEPVGDDPAWPVDRDALAACADEVLAAMRSATSPVLMVCVEVRRYGLEAKVAELAQRLGVPVVTTFMGRGLLADAPTPPLGTYIGVAGDAEITRLVEESDGLFLLGAILSDTNFAVSQRKIDLRKTIHAFDRAVTLGYHTYADIPLAGLVDALLEGLPPSDRTTRGKEPHAYPTGLQADGEPIAPMDIARAVNDRVRAGQEPLLIAADMGDCLLTAMDMIDAGLMAPGYYAGMGFGVPAGIGAQCVSGGKRILTVVGDGAFQMTGWELGNCRRLGIDPIVILFNNASWEMLRTFQPESAFNDLDDWRFADMAAGMGGDGVRVRTRAELKAALDKAFATRGRFQLIEAMIPRGVLSDTLARFVQGQKRLHAAPRE
notes: as for B1
In the case of B2, the K0.5 [4] is reported as 2.39 ± 0.26 mM, the kcat [4] is reported as 0.283 ± 0.017 s⁻¹ and the kcat/Km [4] is reported as 117 ± 16.7 M⁻¹ s⁻¹. For the same molecule, the K0.5 [5] was 2.3 ± 0.5 mM, the kcat [5] was 0.0283 ± 0.005 s⁻¹ and the kcat/Km [5] was 13 ± 3.3 M⁻¹ s⁻¹.

B3: Azospirillum brasilense phenylpyruvate decarboxylase (AbPPDC) variant M461L, SEQ ID 18 (Azospirillum brasilense; M461L) (protein)
chain: MKLAEALLRALKDRGAQAMFGIPGDFALPFFKVAEETQILPLHTLSHEPAVGFAADAAARYSSTLGVAAVTYGAGAFNMVNAVAGAYAEKSPVVVISGAPGTTEGNAGLLLHHQGRTLDTQFQVFKEITVAQARLDDPAKAPAEIARVLGAARALSRPVYLEIPRNMVNAEVEPVGDDPAWPVDRDALAACADEVLAAMRSATSPVLMVCVEVRRYGLEAKVAELAQRLGVPVVTTFMGRGLLADAPTPPLGTYIGVAGDAEITRLVEESDGLFLLGAILSDTNFAVSQRKIDLRKTIHAFDRAVTLGYHTYADIPLAGLVDALLEGLPPSDRTTRGKEPHAYPTGLQADGEPIAPMDIARAVNDRVRAGQEPLLIAADMGDCLFTAMDMIDAGLMAPGYYAGMGFGVPAGIGAQCVSGGKRILTVVGDGAFQMTGWELGNCRRLGIDPIVILFNNASWELLRTFQPESAFNDLDDWRFADMAAGMGGDGVRVRTRAELKAALDKAFATRGRFQLIEAMIPRGVLSDTLARFVQGQKRLHAAPRE
notes: as for B1
For B3, the K0.5 [6] was 0.97 ± 0.04 mM, the kcat [6] was 0.467 ± 0.017 s⁻¹ and the kcat/Km [6] was 483 ± 23.3 M⁻¹ s⁻¹. The K0.5 [7] was 1.4 ± 0.1 mM, the kcat [7] was 0.2 ± 0.0083 s⁻¹ and the kcat/Km [7] was 148 ± 12 M⁻¹ s⁻¹.

B4: Azospirillum brasilense phenylpyruvate decarboxylase (AbPPDC), wild type, SEQ ID 4 (GenBank L26240), 13-amino acid N-terminal histidine tag (Azospirillum … (protein)
chain: MKLAEALLRALKDRGAQAMFGIPGDFALPFFKVAEETQILPLHTLSHEPAVGFAADAAARYSSTLGVAAVTYGAGAFNMVNAVAGAYAEKSPVVVISGAPGTTEGNAGLLLHHQGRTLDTQFQVFKEITVAQARLDDPAKAPAEIARVLGAARALSRPVYLEIPRNMVNAEVEPVGDDPAWPVDRDALAACADEVLAAMRSATSPVLMVCVEVRRYGLEAKVAELAQRLGVPVVTTFMGRGLLADAPTPPLGTYIGVAGDAEITRLVEESDGLFLLGAILSDTNFAVSQRKIDLRKTIHAFDRAVTLGYHTYADIPLAGLVDALLEGLPPSDRTTRGKEPHAYPTGLQADGEPIAPMDIARAVNDRVRAGQEPLLIAADMGDCLFTAMDMIDAGLMAPGYYAGMGFGVPAGIGAQCVSGGKRILTVVGDGAFQMTGWELGNCRRLGIDPIVILFNNASWEMLRTFQPESAFNDLDDWRFADMAAGMGGDGVRVRTRAELKAALDKAFATRGRFQLIEAMIPRGVLSDTLARFVQGQKRLHAAPRE
notes: as for B1
In the case of B4, the K0.5 [8] is reported as 1.23 ± 0.02 mM, the kcat [8] is reported as 0.333 ± 0 s⁻¹ and the kcat/Km [8] is reported as 270 ± 6.7 M⁻¹ s⁻¹. It also gave a K0.5 [9] of 1.7 ± 0.1 mM, a kcat [9] of 0.25 ± 0.012 s⁻¹ and a kcat/Km [9] of 150 ± 12 M⁻¹ s⁻¹.
